± gives the uncertainty stated by the source.
Test: amyloid nucleation score (Sup35N fusion, yeast selection) (log enrichment); library NNK2; higher = more nucleation; inactive = no reads after selection
Summary of the method: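 Sup35N fusions to peptides of 20 random codons were expressed in psi-negative yeast, induced 24 hours with 100 μM copper sulfate, and grown 7 days at 30°C on medium lacking adenine and uracil. Input and output plasmid inserts were sequenced by Illumina. The nucleation score is the DiMSum log enrichment of output over input reads, centred on the mode score of non-aggregating sequences. Sequences with under 100 input reads were excluded.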

Substance	amyloid nucleation score
GEGVSIMYRWHL	1.21 ± 0.1
GEQYATGLP	5.514 ± 0.039
GERRTSLVVKYGRVAGYTYN	-0.273 ± 0.62
GFEGMSMADRKKGEVRAIWG	0.755 ± 0.31
GFFVVISGRMKVYVQGKSWL	-0.325 ± 0.56
GFGLPTGEVVTNNMALGKTE	-0.844 ± 0.49
GFICPFVQLCVFRSRHRFEV	0.676 ± 0.8
GFKSFEHL	1.91 ± 0.14
GFNLKVVVITTFDAFYYHAT	inactive
GFQFLIGLSHLNGYLITPRY	3.42 ± 0.059
GFQWLDAYLLGSFWMRMSTC	0.516 ± 0.81
GFVERNMYAVDNDFYVQNQT	-1.2 ± 0.56
GFVQDAEYRISRSCLRCILM	4.03 ± 0.089
GFVVMMFNLANRYSMQGDVG	8.234 ± 0.052
GGERYHPYYDAA	0.268 ± 0.54
GGFRWSIQEHWYCTNAYSTD	0.734 ± 0.81
GGGHMFFAGQ	-1.28 ± 1.1
GGKTYNSTVVDVCDHAFCDY	-0.924 ± 1.1
GGTVNYFNTLQRSMGNVESV	3.66 ± 0.046
GGWLAWVRKSYVIVFVWGGG	0.257 ± 0.46
GGWNLDYVMRVYTRRLCNAS	1.17 ± 0.41
GGWYDPGCSGGDIITDEVDW	-0.159 ± 0.55
GHGFCDNVTSP	-1.2 ± 1.1
GHLLASKLLQSSYETCS	0.286 ± 0.62
GHSIVLCCRSESPLKKSRYM	-0.432 ± 1

Substance	amyloid nucleation score
GHSLYPWSALTPLL	inactive
GHYKISKAFTVTST	2.58 ± 0.095
GHYLYGFSKNPASENLNAFQ	-1.68 ± 0.75
GIESSPFCFSLPGSATKRKQ	0.485 ± 0.36
GIFWTVNIGEICGAIEWSEG	0.276 ± 0.29
GIISRMGAVSLNLMLQKRAS	0.8 ± 0.46
GIKHVCAWDIN	inactive
GILYFLFVLSSVGDVCRLLV	-0.709 ± 0.63
GIMSFG	1.66 ± 0.43
GINWSAVYR	-0.083 ± 0.24
GIRWQVATDSPRLSGYPLCT	3.46 ± 0.083
GIVVSIMHGIDSYGAIY	-0.395 ± 0.39
GKCWRVRASIFVGILFKIAG	0.486 ± 0.8
GKESTTKH	-0.494 ± 0.56
GKLLRHFGLMYCLFLIAAYG	0.108 ± 0.42
GKVGWDCCISQIYCLDLFIP	8.292 ± 0.047
GKYCYPL	-0.81 ± 0.32
GLAMFKYIMAIVRNF	-0.855 ± 0.37
GLDMDGSVLPFVFYRSMYGE	0.136 ± 0.55
GLFCSLLCLVGAVSEKT	5.26 ± 0.086
GLFSSGRFVSADSM	-0.368 ± 0.54
GLGMGDFCILVKLKANVSRC	-0.266 ± 1
GLGSPLHIWNIFVRRWYHRY	inactive
GLLLGMVFFCGSSTTNMGGI	5.902 ± 0.051
GLLPFGISAMNLRFHQGVAR	-0.359 ± 0.2

Substance	amyloid nucleation score
GLMMPYL	0.062 ± 0.39
GLNLSREYYNLFEVEVHADT	-0.178 ± 0.55
GLNYIARMSQN	0.392 ± 0.3
GLPPVC	0.851 ± 0.22
GLPVCYNRVT	-1.22 ± 1
GLSAIPFTDG	-0.722 ± 0.45
GLTLFVRSLALRNYVCDWSP	0.149 ± 0.36
GLVLWRRHFKAAASVSMQSW	0.216 ± 0.4
GLVSLLYGY	0.185 ± 0.34
GLWVSHEVCIGCVF	inactive
GLYVLYDNINWDERTRALSG	-0.728 ± 0.48
GLYYASYNN	-1.63 ± 0.5
GMESSMVRNVEHVKERVYIE	3.6 ± 0.1
GMMLPVFMIFIRRACINYSL	inactive
GMRADSYCVRVGWFLCQNIN	7.002 ± 0.07
GMRSCYWCEPSYCWASA	2.9 ± 0.066
GMTEWVGLAQERIYAWAKSE	0.517 ± 0.36
GNGLVMLKTVHLWVLRDVLG	0.839 ± 0.24
GNLDDTSLYCLYSLVSSRCS	0.373 ± 0.29
GNMVFAPCDL	1.07 ± 0.2
GNRFNRRLWSQATILEF	-0.166 ± 0.76
GNSISFVYQSLICFNCDLSV	7.453 ± 0.024
GNSLNSYLSE	-0.346 ± 0.42
GNVWILIYNV	6.164 ± 0.057
GNYHFCRERGRVACW	-0.378 ± 1

Substance	amyloid nucleation score
GPDLESFLRVIMQNFHDTKK	-1.54 ± 0.41
GPFLMSVTLVYLFVFMFERL	-0.769 ± 0.36
GPISVKRYL	1.64 ± 0.35
GPLRNEASGIWKKPGQCMTD	-0.813 ± 0.76
GPNDWRNCFRD	0.401 ± 0.56
GQFGVCITSPARQLSYD	inactive
GQPRLRSY	3.89 ± 0.1
GQWRKGAYMVC	0.477 ± 0.34
GQYKTGVRGSRLNLPLMLTE	0.328 ± 0.19
GRCWI	1.39 ± 0.24
GRDNYSWCSRVEPCKRNGAL	0.103 ± 0.43
GRELRTVRNAGPFDQWVGVS	5.79 ± 0.086
GRFKITVTRYANVYSMLRVI	1.02 ± 0.49
GRLLFAWLYLCDYGGYIMRV	-0.081 ± 1.1
GRRMIRAERTIRLIIHVRSL	0.767 ± 0.6
GRSFFMF	2.5 ± 0.091
GRTCVRRGQAE	0.909 ± 0.47
GRTVQIMDRVFS	-1.12 ± 0.76
GRVISCVGLTAFNKAVGSCR	0.626 ± 0.42
GRVNLDRCSSWVGWFVGCLL	-1.09 ± 0.78
GRWVNCKTVVLFSSDRRQAR	3.36 ± 0.14
GRYVNCGRSLRICSINLTKI	-1.31 ± 0.55
GSAFGGRRLFEGLRGGIREW	0.665 ± 0.4
GSDAVR	2.7 ± 0.082
GSFSGKYPRHR	-0.266 ± 1

Substance	amyloid nucleation score
GSGGWLAGHKTVK	0.174 ± 1
GSICAHGECF	0.57 ± 0.81
GSIYTCCGAGRKQNVGPKYL	2.25 ± 0.1
GSLARSTD	1.25 ± 0.15
GSLKCDAHLG	0.339 ± 0.18
GSLLDVTHRRKVLSKSMRGL	0.016 ± 0.35
GSNCIEVFRGWVKFGMDCFW	inactive
GSPLLVNDQSDGMYTSEISF	-1.32 ± 1.1
GSRARNLIASAQYYNG	inactive
GSRDHKPWTNRMWFTYTVIR	0.028 ± 0.17
GSRYN	0.634 ± 0.54
GSRYTEKIPGNRNRSRISL	-0.484 ± 0.35
GSSGLCIRSSLIYFVCQTVW	6.903 ± 0.054
GSSVDGADMIGTLK	1.46 ± 0.28
GSTKFSRDERIAEGGNRGNK	-0.007 ± 0.3
GSVREQNFISRASLYAHGLS	-0.095 ± 0.29
GSWLLGMMVLQRILMNG	1.41 ± 0.44
GSYDLEGGLLHGLTTTSYNR	-0.235 ± 0.55
GSYGQVHSWYVCDFPGWVLR	0.438 ± 0.57
GSYSWSELSCMLFLFVGVSR	0.411 ± 0.53
GSYTHARINSVIFNRYTLCS	0.219 ± 1
GTFIGVNLN	inactive
GTQRAYGVKGKLETDLIRLK	8.554 ± 0.059
GTRTISLKGPSGYYA	-0.689 ± 0.41
GTSVIHISYFIYYPGDRVRR	6.811 ± 0.052

Substance	amyloid nucleation score
GTTWRRINECCSRANKMAPV	0.029 ± 0.35
GTVLAIRQLVSRCSGGVVGG	1.28 ± 0.24
GVAMNNCGIMDSREHGFGIR	0.436 ± 0.36
GVCVQGMFSVSYATILYKVA	1.02 ± 0.2
GVFASSLLVFQLFFISPSNG	6.181 ± 0.028
GVIVCTWPRPRDCS	0.72 ± 0.58
GVLGTLF	-1.13 ± 0.76
GVLQTARRFPVPEGN	3.71 ± 0.12
GVLRQEFYKSANNSMKQWLF	inactive
GVNARQGSHDLVLRIVR	7.39 ± 0.075
GVRHGHTRSVGYFSVSYTSL	-1.05 ± 0.54
GVRKFLHPTTGPYMYTRCWA	0.44 ± 0.45
GVRLDFYGNHFLWPAVSRGR	3.63 ± 0.099
GVSGCANVSCMCADVYPIAP	9.77 ± 0.045
GVTVKGAVIFYRY	6.47 ± 0.074
GVTWTV	-0.104 ± 0.25
GVYWILFIAWLRKVRWYSDV	-0.144 ± 0.32
GWASHGDNDSAMTGGSVWPG	0.587 ± 0.62
GWFGARRGMSIYRVHNWFVF	5.738 ± 0.048
GWGRLTY	0.21 ± 0.74
GWPHKVEFKVNDIFMIFSMM	5.281 ± 0.034
GWQGTLVNCLEDYVCYVCHA	5.34 ± 0.058
GWVCRKRWVVLYMKICMIRR	-0.249 ± 0.21
GWVMVVPFPCMIVVVSAVGS	-0.152 ± 0.4
GWVNRIYTRQLECSSLEYFF	3.17 ± 0.11

Substance	amyloid nucleation score
GYEASHSRFASSHLTPWGKR	1.74 ± 0.32
GYFKRHLRM	-0.619 ± 1
GYLVYFLCINRLACCSYLAT	7.981 ± 0.065
GYNHFFTNDIISRGFPVSFK	inactive
GYRYWRTACSALFRWSEMC	0.948 ± 0.26
GYSGVLILWEVVICWYGVTG	-0.313 ± 0.61
GYSYTLRDRCESRLTLRSDV	0.382 ± 0.37
GYTRNHSLCFFFRMLYM	-1.29 ± 1
GYVFASSVD	0.791 ± 0.81
HAMWCFGFIVLGGGNDIRIW	8.219 ± 0.045
HAPPNCVSSIHSRRVSSWHE	0.333 ± 0.65
HCGCMEQA	0.486 ± 0.8
HCGYRVIELDLSRLASRSLR	0.195 ± 0.32
HCHWWEGWRVEVYCLFPVTT	7.852 ± 0.064
HCNLSWSCTSGIALSRT	4.54 ± 0.1
HCSWLYVLSYVSMSNICIGY	-0.876 ± 0.76
HCVLYCNMALFLQRSHRASC	8.484 ± 0.039
HCVMLHGGSPRHLNRRTDIC	0.292 ± 0.27
HDMEYKVMDRIARM	-0.501 ± 1.1
HEHLLPRT	0.02 ± 0.74
HEPGFHYYCY	2.43 ± 0.1
HEQLW	-0.243 ± 0.48
